We go through three substances from IntAct's records for PubMed 21658387.

The target in experiment [1] is mbp_bovin MBP (UniProt P02687).
The target in experiment [2] is akt1_human AKT1 (UniProt P31749).
Experiment [3] has the same target. The source holds these as a separate data set.
Experiment [4] deals with mbp_bovin MBP (UniProt P02687). This is another data set of the same source.
Experiment [5] concerns the target akt1_human AKT1 (UniProt P31749). The source holds these as a separate data set.

akt1_human AKT1, sequence (P31749 whole entry): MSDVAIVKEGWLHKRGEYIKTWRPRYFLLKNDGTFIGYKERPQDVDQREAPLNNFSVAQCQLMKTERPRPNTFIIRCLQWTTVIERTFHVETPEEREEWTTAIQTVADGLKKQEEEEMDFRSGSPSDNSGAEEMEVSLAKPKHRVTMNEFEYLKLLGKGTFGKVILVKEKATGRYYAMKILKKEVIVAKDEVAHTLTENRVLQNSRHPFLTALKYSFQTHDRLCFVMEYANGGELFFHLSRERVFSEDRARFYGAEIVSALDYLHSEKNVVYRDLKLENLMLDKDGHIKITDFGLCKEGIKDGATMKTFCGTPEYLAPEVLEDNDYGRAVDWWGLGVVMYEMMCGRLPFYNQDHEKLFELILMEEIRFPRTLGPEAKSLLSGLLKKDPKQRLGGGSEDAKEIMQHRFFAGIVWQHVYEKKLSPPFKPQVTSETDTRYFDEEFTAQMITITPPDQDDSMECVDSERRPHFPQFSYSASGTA
mbp_bovin MBP, sequence (P02687 whole entry): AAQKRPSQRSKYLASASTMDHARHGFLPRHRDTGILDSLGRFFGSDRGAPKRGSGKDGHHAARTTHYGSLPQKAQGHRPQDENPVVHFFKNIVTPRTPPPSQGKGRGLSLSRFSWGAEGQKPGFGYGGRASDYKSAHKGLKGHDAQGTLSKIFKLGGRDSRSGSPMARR

On to “Leucine-rich repeat serine/threonine-protein kinase 2 (Homo sapiens), Q5S007 G2019S”, for which the “effect of a mutation on the interaction” value with mbp_bovin MBP [1] is reported as “increasing interaction”; with akt1_human AKT1 [2] it was “decreasing interaction”. As to “Leucine-rich repeat serine/threonine-protein kinase 2 (Homo sapiens), Q5S007 I2020T”, the entries for the “effect of a mutation on the interaction” value with akt1_human AKT1 [3] and in the experiment with mbp_bovin MBP [4] were “decreasing interaction” and “increasing interaction”, respectively. As for “Leucine-rich repeat serine/threonine-protein kinase 2 (Homo sapiens), Q5S007 R1441C”, the “effect of a mutation on the interaction” value with akt1_human AKT1 [5] is listed as “decreasing interaction”.
